From patent publication US20250215100A1

Target: human CD40 on cells (human) (UniProt P25942)
Assay: FACS, inhibition of human CD40L-his binding to CHO-K1/hCD40 cells

human CD40 on cells (human), sequence (P25942 21-277): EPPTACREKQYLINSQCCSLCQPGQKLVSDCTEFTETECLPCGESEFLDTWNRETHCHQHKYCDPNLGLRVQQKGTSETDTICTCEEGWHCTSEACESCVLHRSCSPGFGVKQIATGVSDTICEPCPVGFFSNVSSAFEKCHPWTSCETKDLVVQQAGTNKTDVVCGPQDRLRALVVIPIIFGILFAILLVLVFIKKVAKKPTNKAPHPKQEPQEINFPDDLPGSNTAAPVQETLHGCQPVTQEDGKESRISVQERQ

Maximum inhibition rate (%): 2.3%
Substance: hIgG1 (antibody)
